We go through one molecule from article PMC8230603, “Rad52 Oligomeric N-Terminal Domain Stabilizes Rad51 Nucleoprotein Filaments and Contributes to Their Protection against Srs2”.

The data set addresses Rad52-FLAG (Saccharomyces cerevisiae, UniProt P06778 1-471). Put plainly: EMSA; 5 mM MgCl2; 10 mM Tris-HCl pH 8, 5 mM MgCl2, 100 mM NaCl, 37 °C, 10 min; 0.27 µM Cy5-DNA (nt per Fig 6 legend); 8% native PAGE. The note with it: protein: recombinant; tags: FLAG; chain copies: 10; label: 5'-Cy5 on strand 1; blunt.

Sequence of Rad52-FLAG (P06778 whole entry): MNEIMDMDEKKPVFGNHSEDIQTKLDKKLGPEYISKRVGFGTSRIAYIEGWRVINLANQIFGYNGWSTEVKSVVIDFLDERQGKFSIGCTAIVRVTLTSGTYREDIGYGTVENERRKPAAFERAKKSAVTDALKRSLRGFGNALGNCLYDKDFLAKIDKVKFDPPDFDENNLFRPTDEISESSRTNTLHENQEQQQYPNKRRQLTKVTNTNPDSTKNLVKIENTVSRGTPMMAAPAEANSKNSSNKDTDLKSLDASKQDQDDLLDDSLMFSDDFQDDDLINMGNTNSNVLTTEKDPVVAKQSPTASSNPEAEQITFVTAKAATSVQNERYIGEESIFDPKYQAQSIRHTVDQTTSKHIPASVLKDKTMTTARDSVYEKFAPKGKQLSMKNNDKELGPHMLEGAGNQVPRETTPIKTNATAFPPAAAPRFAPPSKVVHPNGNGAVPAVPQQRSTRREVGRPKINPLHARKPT

B1: XV2 dsDNA (dsDNA)
DNA 1: TGGGTGAACCTGCAGGTGGGCAAAGATGTCCTAGCAATGTAATCGTCAAGCTTTATGCCGTT
DNA 2: AACGGCATAAAGCTTGACGATTACATTGCTAGGACATCTTTGCCCACCTGCAGGTTCACCCA
With B1, the binding result is listed as “binds”.
